B1: NT7 protein fragment (N-terminal T7 RNA polymerase fragment without Tlpa coiled-coil) (other)
chain: MNTINIAKNDFSDIELAAIPFNTLADHYGERLAREQLALEHESYEMGEARFRKMFERQLKAGEVADNAAAKPLITTLLPKMIARINDWFEEVKAKRGKRPTAFQFLQEIKPEAVAYITIKTTLACLTSADNTTVQAVASAIGRAIEDEARFGRIRDLEAKHFKKNVEEQLNKRVGHVYKKAFMQVVEADMLSKGLLGGEAWSSWHKEDSIHVGVRCIEMLIESTGMVSLHRQNAGVVGQDSETIELAPEYAEAIATRAGALAGISPMFQPCVVPPKPWTGITGGGYWANGRRPLALVRTHSKKALMRYEDVYMPEVYKAINIAQNTAWKINKKVLAVANVITKWKHCPVEDIPAIEREELPMKPEDIDMNPEALTAWKRAAAAVYRKDKARKSRRISLEFMLEQANKFANHKAIWFPYNMDWRGRVYAVSMFNPQGNDMTKGLLTLAKGKPIGKEGYYWLKIHGANCAGVDKVPFPERIKFIEENHENIMACAKSPLENTWWAEQDSPFCFLAFCFEYAGVQHHGLSYNCSLPLAFDGSCSGIQHFSAMLRDEVGGRAVNLLP

Assays:
[1] = target: CT7-Tlpa coil fusion protein (Tlpa coiled-coil domain - GGSGG linker - C-terminal T7 RNA polymerase fragment) (T7 phage); experiment: cell-based or functional assay
[2] = target: CT7 protein fragment (C-terminal T7 RNA polymerase fragment without Tlpa coiled-coil) (T7 phage, UniProt P00573 564-883); experiment: cell-based or functional assay

Molecule | fold-difference of pT7-GFP reporter between 30° C. and 42° C., Thermal-T7RNAP(v3) [1] [fold] | half-activation temperature Km of pT7-GFP reporter, Thermal-T7RNAP(v1) [1] [° C.] | half-activation temperature Km of pT7-GFP reporter, Thermal-T7RNAP(v2) [1] [° C.] | half-activation temperature Km of pT7-GFP reporter, Thermal-T7RNAP(v3) [1] [° C.] | maximum repression capacity Kinh of pT7-GFP reporter, Thermal-T7RNAP(v1) [1] | maximum repression capacity Kinh of pT7-GFP reporter, Thermal-T7RNAP(v2) [1] | maximum repression capacity Kinh of pT7-GFP reporter, Thermal-T7RNAP(v3) [1] | fold-difference of pT7-GFP reporter between 30° C. and 42° C., Split-T7 system (no Tlpa coil) [2] [fold]
NT7-Tlpa coil fusion protein (N-terminal T7 RNA polymerase fragment - GGSGG linker - Tlpa coiled-coil domain) | 24 | 37.5 | 38.4 | 36.3 | 0.957 | 0.427 | 0.971 | –
B1 | – | – | – | – | – | – | – | 4

Reference: patent publication US20240035059A1 (NATIONAL UNIVERSITY OF SINGAPORE, published 2024)
